The results in this text go back to patent publication US20120178796A1 (published 2012).

The chains are these.
B1: Flag-tagged AROS (other, UniProt Q86WX3 1-136, looked up, not shown: small tags and cut ends)
chain: MSAALLRRGLELLAASEAPRDPPGQAKPRGAPVKRPRKTKAIQAQKLRNSAKGKVPKSALDEYRKRECRDHLRVNLKFLTRTRSTVAESVSQQILRQNRGRKACDRPVAKTKKKKAEGTVFTEEDFQKFQQEYFGS
notes: its order in the chain is arbitrary
B2: SIRT1-FL (endogenous full length SIRT1) (enzyme, human, UniProt Q96EB6 1-747, looked up)
chain: MADEAALALQPGGSPSAAGADREAASSPAGEPLRKRPRRDGPGLERSPGEPGGAAPEREVPAAARGCPGAAAAALWREAEAEAAAAGGEQEAQATAAAGEGDNGPGLQGPSREPPLADNLYDEDDDDEGEEEEEAAAAAIGYRDNLLFGDEIITNGFHSCESDEEDRASHASSSDWTPRPRIGPYTFVQQHLMIGTDPRTILKDLLPETIPPPELDDMTLWQIVINILSEPPKRKKRKDINTIEDAVKLLQECKKIIVLTGAGVSVSCGIPDFRSRDGIYARLAVDFPDLPDPQAMFDIEYFRKDPRPFFKFAKEIYPGQFQPSLCHKFIALSDKEGKLLRNYTQNIDTLEQVAGIQRIIQCHGSFATASCLICKYKVDCEAVRGDIFNQVVPRCPRCPADEPLAIMKPEIVFFGENLPEQFHRAMKYDKDEVDLLIVIGSSLKVRPVALIPSSIPHEVPQILINREPLPHLHFDVELLGDCDVIINELCHRLGGEYAKLCCNPVKLSEITEKPPRTQKELAYLSELPPTPLHVSEDSSSPERTSPPDSSVIVTLLDQAAKSNDDLDVSESKGCMEEKPQEVQTSRNVESIAEQMENPDLKNVGSSTGEKNERTSVAGTVRKCWPNRVAKEQISRRLDGNQYLFLPPNRYIFHGAEVYSDSEDDVLSSSSCGSNSDSGTCQSPSLEEPMEDESEIEEFYNGLEDEPDVPERAGGAGFGTDGDDQEAINEAISVKQEVTDMNYPSNKS
B3: Myc-tagged SIRT1-ΔExon8 (SIRT1 Δ8 tagged at the C-terminus with c-Myc and 6x His) (enzyme)
chain: ADEAALALQPGGSPSAAGADREAASSPAGEPLRKRPRRDGPGLERSPGEPGGAAPEREVPAAARGCPGAAAAALWREAEAEAAAAGGEQEAQATAAAGEGDNGPGLQGPSREPPLADNLYDEDDDDEGEEEEEAAAAAIGYRDNLLFGDEIITNGFHSCESDEEDRASHASSSDWTPRPRIGPYTFVQQHLMIGTDPRTILKDLLPETIPPPELDDMTLWQIVINILSEPPKRKKRKDINTIEDAVKLLQECKKIIVLTGAGVSVSCGIPDFRSRDGIYARLAVDFPDLPDPQAMFDIEYFRKDPRPFFKFAKEIYPGQFQPSLCHKFIALSDKEGKLLRNYTQNIDTLEQVAGIQRIIQCHGSFATASCLICKYKVDCEAVRGDIFNQVVPRCPRCPADEPLAIMKPEIVFFGENLPEQFHRAMKYDKDEVDLLIVIGSSLKVRPVALIPSNQYLFLPPNRYIFHGAEVYSDSEDDVLSSSSCGSNSDSGTCQSPSLEEPMEDESEIEEFYNGLEDEPDVPERAGGAGFGTDGDDQEAINEAISVKQEVTDMNYPSNKS
notes: Transiently expressed in HCT116 cells, about 95 kDa; Found phosphorylated at S27 and S47 in lysates; also called SIRT1-delta exon 8; SIRT1 D8; not shown: C-terminal c-Myc and 6x His tags
B4: Myc-His-SIRT1 Δ2-9 (MH-SIRT1 Δ2-9) (other, not shown: small tags and cut ends)
chain: MADEAALALQPGGSPSAAGADREAASSPAGEPLRKRPRRDGPGLERSPGEPGGAAPEREVPAAARGCPGAAAAALWREAEAEAAAAGGEQEAQATAAAGEGDNGPGLQGPSREPPLADNLYDEDDDDEGEEEEEAAAAAIGYRDNLLFVLVAVTVIVGHARVQV
notes: Expressed in HCT116 p53+/+ cells from pcDNA3.1; Serine 47 found phosphorylated; also called exogenous SIRT1 Δ2-9

The target in assay [1] is B3. The assay is described as follows: pull-down / co-immunoprecipitation from HCT116 cells. How it is done: (§1) SIRT1-ΔExon8 was exogenously expressed in HCT116 cells and immuno-precipitated. […] SIRT1-ΔExon8 and Flag-tagged AROS were exogenously expressed in HCT116 cells, and the Flag epitope was immuno-precipitated. In the eluate, AROS was detected by probing with an anti-AROS antibody (Methods), while the interaction with SIRT1-ΔExon8 was probed with anti-c-Myc antibody (9E10, Santa Cruz). C. […] SIRT1-ΔExon8 was exogenously expressed in HCT116 cells and cells were harvested 24 h post-transfection. Cell lysates were immuno-precipitated with anti-c-Myc antibody (9E10, Santa Cruz). Western-blotting was performed with a C-terminal anti-SIRT1 antibody (residues 448-747, H300, Santa Cruz) which detects both endogenous SIRT1-FL and SIRT1-ΔExon8 (see: FIG. 2a). * indicates a non-specific band;

The target of assay [2] is T1, p53 (endogenous, HCT116 p53+/+ cells) (human, UniProt P04637 1-393). Description: cell-based or functional assay.
Assay [3] concerns the target T2, DBC-1 (endogenous, HCT116 cells) (human, UniProt Q8N163 1-923).
T2 construct: Endogenous protein in cell lysate, probed with anti-DBC-1; also called endogenous DBC-1
Description: immunoprecipitation of exogenous SIRT1-ΔExon8 from HCT116 cells, eluate probed with anti-DBC-1. Here is the method: as §1

The target of assay [4] is B2. The assay is described as follows: immunoprecipitation with anti-c-Myc 9E10 from HCT116 lysates, Western blot with H300 anti-SIRT1. How it is done:
as §1
On the technique in general: A western blot detects proteins with antibodies after separation by electrophoresis.

Assay [5] deals with T1, p53 (endogenous, HCT116 p53+/+ cells). The assay is described as follows: immunoprecipitation of exogenous SIRT1 Δ2-9 with His antibody, blotted with p53 antibody.

Some results are limits rather than exact numbers.

T1 sequence (P04637 whole entry): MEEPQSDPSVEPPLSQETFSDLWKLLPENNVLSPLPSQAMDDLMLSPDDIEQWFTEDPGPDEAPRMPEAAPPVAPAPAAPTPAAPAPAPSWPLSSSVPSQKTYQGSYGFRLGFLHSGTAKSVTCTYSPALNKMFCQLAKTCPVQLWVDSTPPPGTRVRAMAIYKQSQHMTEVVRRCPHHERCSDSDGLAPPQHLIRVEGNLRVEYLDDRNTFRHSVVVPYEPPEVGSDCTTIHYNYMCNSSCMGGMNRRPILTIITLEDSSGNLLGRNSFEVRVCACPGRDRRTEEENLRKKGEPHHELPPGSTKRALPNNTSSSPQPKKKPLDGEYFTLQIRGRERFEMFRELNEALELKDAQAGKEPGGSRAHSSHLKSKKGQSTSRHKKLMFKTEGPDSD
T2 sequence (Q8N163 whole entry): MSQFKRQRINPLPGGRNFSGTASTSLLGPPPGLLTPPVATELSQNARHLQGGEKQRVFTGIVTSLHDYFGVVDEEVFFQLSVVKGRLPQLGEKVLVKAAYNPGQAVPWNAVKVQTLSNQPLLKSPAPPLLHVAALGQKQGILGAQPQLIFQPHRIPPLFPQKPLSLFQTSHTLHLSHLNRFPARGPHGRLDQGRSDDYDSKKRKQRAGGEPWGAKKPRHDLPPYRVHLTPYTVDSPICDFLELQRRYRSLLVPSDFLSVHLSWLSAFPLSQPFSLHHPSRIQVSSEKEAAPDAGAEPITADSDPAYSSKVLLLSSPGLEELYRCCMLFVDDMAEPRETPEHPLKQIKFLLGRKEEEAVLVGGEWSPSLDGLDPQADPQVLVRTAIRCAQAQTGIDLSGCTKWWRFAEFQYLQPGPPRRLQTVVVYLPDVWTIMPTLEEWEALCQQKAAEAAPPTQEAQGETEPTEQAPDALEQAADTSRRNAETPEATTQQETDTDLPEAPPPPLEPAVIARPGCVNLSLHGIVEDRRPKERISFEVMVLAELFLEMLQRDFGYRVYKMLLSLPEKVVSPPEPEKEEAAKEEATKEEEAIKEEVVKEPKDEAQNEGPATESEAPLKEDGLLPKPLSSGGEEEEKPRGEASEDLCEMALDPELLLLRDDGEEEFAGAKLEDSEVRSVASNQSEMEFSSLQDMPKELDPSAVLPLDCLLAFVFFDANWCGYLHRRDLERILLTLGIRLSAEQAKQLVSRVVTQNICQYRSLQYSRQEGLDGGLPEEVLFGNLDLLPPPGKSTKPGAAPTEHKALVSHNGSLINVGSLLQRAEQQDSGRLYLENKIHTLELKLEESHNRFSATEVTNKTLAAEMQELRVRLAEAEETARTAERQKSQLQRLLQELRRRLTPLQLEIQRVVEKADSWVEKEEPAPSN

For B1, the binding result in assay [1] is given as “binds”. For B2, in assay [2], the “p53 acetylation levels following SIRT1 FL depletion (siRNA) under basal conditions in HCT116 cells, immunoblot” value is more than 50 fold. Take B3: the binding result in assay [3] and in assay [4] was “no binding” throughout. Regarding B4, in assay [5], the binding result was “binds”.
